Experimental data published in paper PMC5109244.
Blank lines part the entries; values can stand above or below the substance they belong to.

Assays:
[1] = target: chimeric DNGR-1:dectin-1 ECD (neck region of long mouse DNGR-1 fused to the CTLD of dectin-1) (mouse); assay: non-reducing SDS-PAGE and Western blot; supernatants of 293F cells with FLAG-tagged ECD proteins, Laemmli buffer without reducing agent, HRP-conjugated anti-FLAG detection
[2] = target: full-length WT DNGR-1 (mouse, long isoform), transmembrane receptor (mouse); assay: reducing SDS-PAGE and Western blot; Phoenix cells expressing full-length DNGR-1 lysed in 1% SDS in 10 mM MES pH 6.1; reducing conditions; anti-DNGR-1 (clone 397) detection
[3] = target: full-length WT DNGR-1 (mouse, long isoform), transmembrane receptor (mouse); assay: reducing SDS-PAGE and Western blot; Phoenix cells expressing full-length DNGR-1 lysed in 1% SDS in PBS; reducing conditions; anti-DNGR-1 (clone 397) detection; reduction-sensitive (type-1) dimers run as monomers
[4] = target: full-length Δ4 DNGR-1 (mouse, long isoform; N81–T90 removed) (mouse); assay: reducing SDS-PAGE and Western blot; Phoenix cells expressing full-length DNGR-1 lysed in 1% SDS in 10 mM MES pH 6.1; reducing conditions; anti-DNGR-1 (clone 397) detection
[5] = target: full-length Δ4 DNGR-1 (mouse, long isoform; N81–T90 removed) (mouse); assay: reducing SDS-PAGE and Western blot; Phoenix cells expressing full-length DNGR-1 lysed in 1% SDS in PBS; reducing conditions; anti-DNGR-1 (clone 397) detection; reduction-sensitive (type-1) dimers run as monomers
[6] = target: long mouse DNGR-1 ECD (extracellular domain of the long isoform of mouse DNGR-1, wild type) (mouse); assay: non-reducing SDS-PAGE and Western blot; purified long mouse ECD in PBS or 10 mM MES pH 6.1, Laemmli buffer or 8 M urea, no reducing agent
[7] = target: long mouse DNGR-1 ECD (extracellular domain of the long isoform of mouse DNGR-1, wild type) (mouse); assay: non-reducing SDS-PAGE and Western blot; supernatants of 293F cells with FLAG-tagged ECD proteins, Laemmli buffer without reducing agent, HRP-conjugated anti-FLAG detection
[8] = target: long mouse DNGR-1 ECD (extracellular domain of the long isoform of mouse DNGR-1, wild type) (mouse); assay: reducing SDS-PAGE and Western blot; purified ECD diluted into buffers of low pH and low ionic strength (10 mM MES pH 6.1; 10 mM Tris; 36 buffers of pH 6.5–8.05 and 15–250 mM ionic strength); 100 mM DTT in Laemmli buffer; reduction-resistant (type-2) dimers
[9] = target: Δ3A mutant long mouse DNGR-1 ECD (all residues of block 3, L72–L82, replaced by alanines) (mouse); assay: non-reducing SDS-PAGE and Western blot; supernatants of 293F cells with FLAG-tagged ECD proteins, Laemmli buffer without reducing agent, HRP-conjugated anti-FLAG detection
[10] = target: Δ4 mutant long mouse DNGR-1 ECD (N81–T90 removed) (mouse); assay: reducing SDS-PAGE and Western blot; supernatants with FLAG-tagged ECD proteins diluted into 10 mM MES pH 6.1; 100 mM DTT in Laemmli buffer; anti-FLAG detection; reduction-resistant (type-2) dimers
[11] = target: Δ4 mutant long mouse DNGR-1 ECD (N81–T90 removed) (mouse); assay: reducing SDS-PAGE and Western blot; supernatants with FLAG-tagged ECD proteins, neat or diluted into PBS (neutral conditions); reduced with DTT (100 mM) or β-ME in Laemmli buffer; anti-FLAG detection
[12] = target: Δ4A mutant long mouse DNGR-1 ECD (all residues of block 4, N81–T90, replaced by alanines) (mouse); assay: non-reducing SDS-PAGE and Western blot; supernatants of 293F cells with FLAG-tagged ECD proteins, Laemmli buffer without reducing agent, HRP-conjugated anti-FLAG detection
[13] = target: Δ4A mutant long mouse DNGR-1 ECD (all residues of block 4, N81–T90, replaced by alanines) (mouse); assay: reducing SDS-PAGE and Western blot; supernatants with FLAG-tagged ECD proteins, neat or diluted into PBS (neutral conditions); reduced with DTT (100 mM) or β-ME in Laemmli buffer; anti-FLAG detection
[14] = target: Δ6A mutant long mouse DNGR-1 ECD (all residues of block 6, Q95–S104, replaced by alanines) (mouse); assay: non-reducing SDS-PAGE and Western blot; supernatants of 293F cells with FLAG-tagged ECD proteins, Laemmli buffer without reducing agent, HRP-conjugated anti-FLAG detection

long mouse DNGR-1 ECD (extracellular domain of the long isoform of mouse DNGR-1, wild type) (domain or fragment), sequence (Q8BRU4 113-235): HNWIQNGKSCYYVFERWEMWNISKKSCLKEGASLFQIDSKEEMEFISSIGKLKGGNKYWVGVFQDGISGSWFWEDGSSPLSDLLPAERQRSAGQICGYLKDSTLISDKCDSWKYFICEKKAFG
full-length WT DNGR-1 (mouse, long isoform), transmembrane receptor, sequence (Q8BRU4 whole entry, canonical isoform): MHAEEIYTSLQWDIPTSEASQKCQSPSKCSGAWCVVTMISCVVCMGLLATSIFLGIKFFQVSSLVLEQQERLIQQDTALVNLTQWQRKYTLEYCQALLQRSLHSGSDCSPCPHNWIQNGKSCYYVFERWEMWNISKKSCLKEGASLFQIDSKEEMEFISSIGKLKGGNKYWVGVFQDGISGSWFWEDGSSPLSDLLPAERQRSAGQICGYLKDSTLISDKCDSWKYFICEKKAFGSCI

Substance: chimeric DNGR-1:dectin-1 ECD (neck region of long mouse DNGR-1 fused to the CTLD of dectin-1)
stoichiometry N [1]: 2

Substance: full-length WT DNGR-1 (mouse, long isoform), transmembrane receptor
stoichiometry N [2]: 2
stoichiometry N [3]: 2

Substance: Δ3A mutant long mouse DNGR-1 ECD (all residues of block 3, L72–L82, replaced by alanines) (domain or fragment)
stoichiometry N [9]: 2

Second part, the substance after the results:

stoichiometry N [4]: 2
stoichiometry N [5]: 2
Substance: full-length Δ4 DNGR-1 (mouse, long isoform; N81–T90 removed) (receptor)

stoichiometry N [6]: 2
stoichiometry N [7]: 2
stoichiometry N [8]: 2
Substance: long mouse DNGR-1 ECD (extracellular domain of the long isoform of mouse DNGR-1, wild type) (domain or fragment)

stoichiometry N [10]: 2
stoichiometry N [11]: 2
Substance: Δ4 mutant long mouse DNGR-1 ECD (N81–T90 removed) (domain or fragment)

stoichiometry N [12]: 2
stoichiometry N [13]: 2
Substance: Δ4A mutant long mouse DNGR-1 ECD (all residues of block 4, N81–T90, replaced by alanines) (domain or fragment)

stoichiometry N [14]: 2
Substance: Δ6A mutant long mouse DNGR-1 ECD (all residues of block 6, Q95–S104, replaced by alanines) (domain or fragment)
